The text below walks through data of patent publication US20230312722A1 (NONA BIOSCIENCES SUZHOU, published 2023).

The target in experiment [1] is T1, CD3 on human T cells (human, UniProt P07766 23-207; P04234 22-171; P09693 23-182). Kind of experiment: FACS on human T cells. The protocol: (§1) SK-BR-3 cells were digested. T cells were isolated using the human T cell isolation kit (Miltenyi, #130-096-535) as described in the method of the instruction, and resuspended with PBS containing 2% BSA. The cell density was adjusted to 1×10⁶ cells/mL. The cells were seeded in a 96-well V-bottom plate (Corning, #3894) at 100 μL/well, followed by the addition of test antibodies diluted in a 3-fold gradient at a concentration that was 2 times the final concentration, each at 100 μL/well. The cells were incubated at 4° C. for 2 h away from light. Thereafter, the cells in each well were rinsed twice with 100 μL of pre-cooled PBS containing 2% BSA, and centrifuged at 500 g at 4° C. for 5 min, and then the supernatant was discarded. Then each well was added with 100 μL of fluorescent secondary antibody (Alexa Fluor 488-conjugated AffiniPure Goat Anti-Human IgG, Fcγ Fragment Specific, Jackson, #109-545-098, diluted in a 1:500 ratio), and the plate was incubated away from light at 4° C. for 1 h. The cells in each well were washed twice with 100 μL of pre-cooled PBS containing 2% BSA, and centrifuged at 500 g at 4° C. for 5 minutes, and then the supernatant was discarded. Finally, the cells in each well were resuspended with 200 μL of pre-cooled PBS containing 2% BSA, and the fluorescence signal values were read using an ACEA Novocyte3000 flow cytometer.

Experiment [2] concerns the target T1, CD3 on human T cells. Kind of experiment: FACS on human T cells. The protocol: as §1
This is another data set of the same source.

Experiment [3] concerns the target T1, CD3 on human T cells. Kind of experiment: FACS on human T cells. The protocol:
as §1
The source holds these as a separate data set.

For experiment [4], the target named is T1, CD3 on human T cells. Kind of experiment: FACS on human T cells. How it is done: as §1
The source holds these as a separate data set.

Experiment [5] concerns the target T2, human B7H4 on the cell surface (human, UniProt Q7Z7D3 25-282).
T2 construct: whole, on cells; also called CHOK1/hu B7H4; B7H4 on SK-BR-3
T2 sequence (looked up): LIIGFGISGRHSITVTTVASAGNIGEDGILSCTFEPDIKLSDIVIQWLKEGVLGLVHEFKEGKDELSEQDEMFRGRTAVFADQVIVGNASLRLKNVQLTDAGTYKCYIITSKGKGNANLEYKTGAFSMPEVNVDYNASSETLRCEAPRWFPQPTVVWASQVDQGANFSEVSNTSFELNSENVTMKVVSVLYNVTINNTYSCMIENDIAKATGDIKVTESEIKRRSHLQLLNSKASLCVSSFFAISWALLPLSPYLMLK
In words: FACS on SK-BR-3 cells. How it is done: as §1

For experiment [6], the target named is T1, CD3 on human T cells. In words: FACS on human T cells; EC50 printed as n.d., curve still rising at 100 nM. How it is done:
as §1

Experiment [7] addresses T2, human B7H4 on the cell surface. Kind of experiment: FACS on SK-BR-3 cells; the printed number lies below the lowest concentration shown (0.03 nM). The protocol: as §1
For experiment [8], the target named is T3, Human B7H4 (his tag), Sino Biological #10738-H08H (human, UniProt Q7Z7D3 25-259).
T3 construct: extracellular domain; Bought protein; also called hB7H4-ECD-his
T3 sequence (looked up): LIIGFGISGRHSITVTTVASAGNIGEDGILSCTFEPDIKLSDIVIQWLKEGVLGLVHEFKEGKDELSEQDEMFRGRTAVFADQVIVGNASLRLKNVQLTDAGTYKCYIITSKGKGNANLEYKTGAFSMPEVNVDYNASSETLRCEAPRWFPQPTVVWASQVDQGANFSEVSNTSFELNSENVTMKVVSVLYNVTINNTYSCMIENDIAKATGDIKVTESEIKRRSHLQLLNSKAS
Kind of experiment: SPR (Biacore T200), antibody captured on Protein A, B7H4-his as analyte, 1:1 fit. The protocol: 10×HBS-EP+ (GE Healthcare, #BR-1006-69) was diluted 10-fold and then taken as an experimental buffer. The flow rate was set at 10 μL/min, and Protein A was coupled to 4 channels of a chip CM5 (GE Healthcare, #BR-1005-30) through the following procedures: 1) the injection time was set to 800 s, and a fresh mixture of 50 mM NHS and 200 mM EDC was injected into the 4 channels in a volume ratio of 1:1; 2) Protein A was diluted to 20 μg/mL with sodium acetate (GE Healthcare, #BR-1003-50) at pH 4.5 and injected into each channel for 800 s; and 3) 1 M ethanolamine at pH 8.5 was injected for 800 s to block the remaining active carboxyl groups on the chip surface. After blocking, the instrument was equilibrated with 1×HBS-EP+buffer for 2 hours, and the final coupling level of Protein A was about 2000 RU.
A multi-cycle kinetics mode was set at Biacore T200, and each cycle included antibody capture, analyte binding and chip regeneration. […] Finally, 10 mM glycine-hydrochloric acid at pH 1.5 (GE Healthcare, #BR-1003-54) was injected at the same flow rate for 30 s to regenerate the chip.
The experimental results were analyzed using the Biacore T200 analysis software 2.0, with channel 1 subtracted as a reference channel and a 1:1 kinetic fitting model selected as an analysis model.

Experiment [9] has as its target T4, B7-H4 (Acro Biosystems, #B74-H82E2) (UniProt Q7Z7D3 29-258).
T4 construct: Bought protein; also called B7-H4 captured on SA sensor
T4 sequence (looked up): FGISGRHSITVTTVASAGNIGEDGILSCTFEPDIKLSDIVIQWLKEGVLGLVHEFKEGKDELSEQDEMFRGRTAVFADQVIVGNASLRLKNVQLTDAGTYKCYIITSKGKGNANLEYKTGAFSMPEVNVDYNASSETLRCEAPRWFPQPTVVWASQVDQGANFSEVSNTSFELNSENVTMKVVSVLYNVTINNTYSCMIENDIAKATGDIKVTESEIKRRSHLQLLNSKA
Kind of experiment: BLI epitope competition; 1st Ab = row; competitor (2nd Ab) PR002418; inhibition of the 2nd Ab signal. How it is done:
(§2) Step one, acquisition of 100% signal of antibodies: B7-H4 (Acro Biosystems, #B74-H82E2-200 μg) was captured at a capture height of 0.25 nm using an SA sensor (Fortebio, #18-5019). The sensor was equilibrated in a buffer for 120 s and then immersed in each antibody diluted to 100 nM for 240 s, and the final signal of the antibody binding to B7-H4 was recorded as the 100% signal of the antibody. Step two, epitope competition experiment: B7-H4 was captured using an SA sensor at a capture height of 0.25 nm. The sensor was immersed in a primary antibody (at a concentration of 100 nM) for 240 s, and then the SA sensor was immersed in a mixture of the primary and secondary antibodies (both at a final concentration of 100 nM) for 240 s, and the difference in signals after immersion of the sensor in the antibody mixture was recorded as the signal of the antibody as the secondary antibody. The inhibition rate was calculated according to the following formula: […]

Experiment [10] concerns the target T4, B7-H4 (Acro Biosystems, #B74-H82E2). In words: BLI epitope competition; 1st Ab = row; competitor (2nd Ab) PR002421; inhibition of the 2nd Ab signal. The protocol:
as §2

Experiment [11] has the same target. Kind of experiment: BLI epitope competition; 1st Ab = row; competitor (2nd Ab) Control antibody 1; inhibition of the 2nd Ab signal. The protocol:
as §2

The target is the same in experiment [12]. In words: BLI epitope competition; 1st Ab = row; competitor (2nd Ab) Control antibody 2; inhibition of the 2nd Ab signal. The protocol: as §2
Experiment [13] addresses T2, human B7H4 on the cell surface. Kind of experiment: FACS on SK-BR-3 cells, expression supernatant at 1 X and 10X.

Like-named read-outs stand apart in the source and are kept apart here.

T1 sequence (P07766 23-207 limits assumed, chain 1 of 3): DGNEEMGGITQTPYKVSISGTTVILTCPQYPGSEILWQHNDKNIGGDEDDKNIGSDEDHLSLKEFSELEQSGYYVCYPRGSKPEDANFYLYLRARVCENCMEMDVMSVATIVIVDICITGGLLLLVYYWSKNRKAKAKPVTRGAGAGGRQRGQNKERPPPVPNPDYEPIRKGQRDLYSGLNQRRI
T1 sequence (P04234 22-171 limits assumed, chain 2 of 3): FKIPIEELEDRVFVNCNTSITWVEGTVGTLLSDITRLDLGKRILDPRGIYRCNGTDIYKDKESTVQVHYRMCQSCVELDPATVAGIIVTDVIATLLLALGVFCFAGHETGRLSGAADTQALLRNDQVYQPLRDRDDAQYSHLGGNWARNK
T1 sequence (P09693 23-182 limits assumed, chain 3 of 3): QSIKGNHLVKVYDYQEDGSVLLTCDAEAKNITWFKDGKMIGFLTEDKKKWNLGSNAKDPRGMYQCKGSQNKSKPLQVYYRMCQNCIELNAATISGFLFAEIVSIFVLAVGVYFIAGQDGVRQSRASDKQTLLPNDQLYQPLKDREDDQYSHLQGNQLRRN

B1: PR001924 (antibody, V domains shown)
VH: EVQLLESGGGLVQPGGSLRLSCAASGFTFSTYAMNWVRQAPGKGLEWVSRIRSKYNNYATYYADSVKDRFTISRDDSKSTLYLQMNSLRAEDTAVYYCVRHGNFGNSYVSWFAYWGQGTLVTVSS
VL: QAVVTQEPSLTVSPGGTVTLTCRSSTGAVTTSNYANWVQQKPGQAPRGLIGGTNKRAPWTPARFSGSLLGDKAALTLLGAQPEDEAEYFCALWYSNLWVFGGGTKLTVLG
notes: also called PR001924 (αCD3 IgG)
As to B1, the EC50 in the experiment with CD3 on human T cells [1] worked out at 7.5 nM; in the experiment with CD3 on human T cells [2] it was 7.5 nM; with CD3 on human T cells [3], 6.1 nM; with CD3 on human T cells [4] it was 7.5 nM.

B2: PR002994 (bispecific antibody, human IgG1, kappa, lambda, L234A L235A)
chain 1: EVQLLESGGGLVQPGGSLRLSCAASGFTFSTYAMNWVRQAPGKGLEWVSRIRSKYNNYATYYADSVKDRFTISRDDSKSTLYLQMNSLRAEDTAVYYCVRHGNFGNSYVSWFAYWGQGTLVTVSSASTKGPSVFPLAPSSKSTSGGTAALGCLVKDYFPEPVTVSWNSGALTSGVHTFPAVLQSSGLYSLSSVVTVPSSSLGTQTYICNVNHKPSNTKVDKKVEPKSC
chain 2: not shown
heavy: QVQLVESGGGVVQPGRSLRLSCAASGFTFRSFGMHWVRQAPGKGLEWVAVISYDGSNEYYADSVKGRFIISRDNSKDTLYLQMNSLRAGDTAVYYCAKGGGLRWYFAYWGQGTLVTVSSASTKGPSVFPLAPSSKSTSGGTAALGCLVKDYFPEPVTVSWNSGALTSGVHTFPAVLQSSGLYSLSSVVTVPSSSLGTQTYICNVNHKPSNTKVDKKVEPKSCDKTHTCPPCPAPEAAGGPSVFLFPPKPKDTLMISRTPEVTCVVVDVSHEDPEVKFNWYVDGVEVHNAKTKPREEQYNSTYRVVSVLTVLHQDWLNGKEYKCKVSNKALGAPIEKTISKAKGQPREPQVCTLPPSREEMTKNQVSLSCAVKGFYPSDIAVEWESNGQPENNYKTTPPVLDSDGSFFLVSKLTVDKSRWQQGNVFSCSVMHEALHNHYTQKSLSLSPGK
light: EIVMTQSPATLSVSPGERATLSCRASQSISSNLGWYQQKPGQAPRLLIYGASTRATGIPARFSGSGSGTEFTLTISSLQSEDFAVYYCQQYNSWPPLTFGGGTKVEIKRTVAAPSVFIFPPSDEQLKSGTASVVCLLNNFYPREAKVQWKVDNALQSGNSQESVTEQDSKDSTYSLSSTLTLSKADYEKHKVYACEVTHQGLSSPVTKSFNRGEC
notes: B7H4 x CD3, 2+1 asymmetric structure (structure 6): CD3 end from PR001924, two B7H4 Fabs from PR001476
Regarding B2, the figures for the “Maximum MFI” value (in experiment [5]; with CD3 on human T cells [6]) were 183000 and 73000, respectively. The concentration for a half-maximal effect (EC50) in [7] stood at 0.006 nM.

B3: Control antibody 2 (PR002962) (antibody, human IgG1, kappa, V domains shown)
VH: QLQLQESGPGLVKPSETLSLTCTVSGGSIKSGSYYWGWIRQPPGKGLEWIGNIYYSGSTYYNPSLRSRVTISVDTSKNQFSLKLSSVTAADTAVYYCAREGSYPNQFDPWGQGTLVTVSS
VL: EIVMTQSPATLSVSPGERATLSCRASQSVSSNLAWYQQKPGQAPRLLIYGASTRATGIPARFSGSGSGTEFTLTISSLQSEDFAVYYCQQYHSFPFTFGGGTKVEIKR
notes: Anti-B7H4 IgG1 control antibody from WO2019040780A1 (FivePrime), Fc mutated on the basis of PR002961 to enhance ADCC
For B3, binding in [8] was characterised by a dissociation constant (Kd) of 4.45 nM. The molecule also showed a koff in experiment [8] of 0.00116 s⁻¹. Also, the kon in experiment [8] worked out at 261000 M⁻¹ s⁻¹. Also, the “Competitive inhibition rate (%)” value amounted to 4.49% in [9], 6.32% in experiment [10], 96.6% in experiment [11] and 95.8% in experiment [12].

B4: PR002405 (antibody, human IgG1, kappa, V domains shown)
VH: QVQLVESGGGVVQPGRSLRLSCAASGFTFRSFGMHWVRQAPGKGLEWVAVISYEGSNEYYADSVKGRFIISRDNSKDTLYLQMNSLRAGDTAVYYCAKGGGLRWYFAYWGQGTLVTVSS
VL: EIVMTQSPATLSVSPGERATLSCRASQSISSNLGWYQQKPGQAPRLLIYGASTRATGIPARFSGSGSGTEFTLTISSLQSEDFAVYYCQQYQSWPPLTFGGGTKVEIKR
notes: variant of PR001476 (H: D54E); also called PR002405 supernatant
Consider B4, for which the binding result in experiment [13] was “binds”.
